± gives the uncertainty stated by the source.

Sequences and labels used below:
B1: Unconventional myosin-Ie, residues 1051 to 1108; numbered along this chain, Q12965 (parent)
chain: PQVPQCKALYAYDAQDTDELSFNANDIIDIIKEDPSGWWTGRLRGKQGLFPNNYVTKI

The variants in the data set derive from B1. The experiment in a line: abundance fitness (aPCA) (normalised: wild type 0, dead -1); higher = more abundant; growth selection in yeast, the domain comes from the species named. Conditions: Homo sapiens.
For the variant PQVPQCKALYAYDAQDTDELSFNENDIIDIIKEDPSGWWTGRLRGKQGLFPNNYVTKI [A24E], the abundance fitness is -0.052 ± 0.054. Regarding PQVPQCKALYAYDAQDTDELSFNFNDIIDIIKEDPSGWWTGRLRGKQGLFPNNYVTKI [A24F], the abundance fitness is -0.106 ± 0.1. For the variant PQVPQCKALYAYDAQDTDELSFNDNDIIDIIKEDPSGWWTGRLRGKQGLFPNNYVTKI [A24D], the abundance fitness was -0.477 ± 0.15.

PQVPQCKALYAYDAQDTDELSFNHNDIIDIIKEDPSGWWTGRLRGKQGLFPNNYVTKI [A24H]: the abundance fitness was -0.06 ± 0.12. To PQVPQCKALYAYDAQDTDELSFNCNDIIDIIKEDPSGWWTGRLRGKQGLFPNNYVTKI [A24C] belongs -0.213 ± 0.1; to PQVPQCKALYAYDAQDTDELWFNANDIIDIIKEDPSGWWTGRLRGKQGLFPNNYVTKI [S21W], -0.559 ± 0.13. PQVPQCKALYAYDAQDTDELQFNANDIIDIIKEDPSGWWTGRLRGKQGLFPNNYVTKI [S21Q]: the abundance fitness is -0.325 ± 0.087. Consider PQVPQCKALYAYDAQDTDELNFNANDIIDIIKEDPSGWWTGRLRGKQGLFPNNYVTKI [S21N], for which the abundance fitness was -0.175 ± 0.093.

As to PQVPQCKALYAYDAQDTDELLFNANDIIDIIKEDPSGWWTGRLRGKQGLFPNNYVTKI [S21L], the abundance fitness was -0.939 ± 0.11.

Take PQVPQCKALYAYDAQDTDELTFNANDIIDIIKEDPSGWWTGRLRGKQGLFPNNYVTKI [S21T]: the abundance fitness was -0.058 ± 0.042. Take PQVPQCKALYAYDAQDTDELVFNANDIIDIIKEDPSGWWTGRLRGKQGLFPNNYVTKI [S21V]: the abundance fitness is -0.891 ± 0.1. Take PQVPQCKALYAYDAQDTDELYFNANDIIDIIKEDPSGWWTGRLRGKQGLFPNNYVTKI [S21Y]: the abundance fitness was -0.756 ± 0.28.

With PQVPQCKALYAYDAQDTDELMFNANDIIDIIKEDPSGWWTGRLRGKQGLFPNNYVTKI [S21M], the abundance fitness is -0.803 ± 0.15. To PQVPQCKALYAYDAQDTDELSKNANDIIDIIKEDPSGWWTGRLRGKQGLFPNNYVTKI [F22K] belongs -0.754 ± 0.18; to PQVPQCKALYAYDAQDTDELSHNANDIIDIIKEDPSGWWTGRLRGKQGLFPNNYVTKI [F22H], -0.727 ± 0.27. As to PQVPQCKALYAYDAQDTDELSDNANDIIDIIKEDPSGWWTGRLRGKQGLFPNNYVTKI [F22D], the abundance fitness is -0.748 ± 0.45. As for PQVPQCKALYAYDAQDTDELSMNANDIIDIIKEDPSGWWTGRLRGKQGLFPNNYVTKI [F22M], the abundance fitness was -0.441 ± 0.055.

As to PQVPQCKALYAYDAQDTDELSINANDIIDIIKEDPSGWWTGRLRGKQGLFPNNYVTKI [F22I], the abundance fitness was -0.409 ± 0.073. To PQVPQCKALYAYDAQDTDELSENANDIIDIIKEDPSGWWTGRLRGKQGLFPNNYVTKI [F22E] belongs -0.858 ± 0.21; to PQVPQCKALYAYDAQDTDELSSNANDIIDIIKEDPSGWWTGRLRGKQGLFPNNYVTKI [F22S], -0.766 ± 0.073; to PQVPQCKALYAYDAQDTDELSTNANDIIDIIKEDPSGWWTGRLRGKQGLFPNNYVTKI [F22T], -0.793 ± 0.21. In the case of PQVPQCKALYAYDAQDTDELSPNANDIIDIIKEDPSGWWTGRLRGKQGLFPNNYVTKI [F22P], the abundance fitness was -0.834 ± 0.26. To PQVPQCKALYAYDAQDTDELSNNANDIIDIIKEDPSGWWTGRLRGKQGLFPNNYVTKI [F22N] belongs -0.816 ± 0.28; to PQVPQCKALYAYDAQDTDELSGNANDIIDIIKEDPSGWWTGRLRGKQGLFPNNYVTKI [F22G], -0.954 ± 0.095; to PQVPQCKALYAYDAQDTDELSCNANDIIDIIKEDPSGWWTGRLRGKQGLFPNNYVTKI [F22C], -0.895 ± 0.13. Turning to PQVPQCKALYAYDAQDTDELSVNANDIIDIIKEDPSGWWTGRLRGKQGLFPNNYVTKI [F22V], the abundance fitness is -0.472 ± 0.079. To PQVPQCKALYAYDAQDTDELSRNANDIIDIIKEDPSGWWTGRLRGKQGLFPNNYVTKI [F22R] belongs -0.953 ± 0.11. PQVPQCKALYAYDAQDTDELSYNANDIIDIIKEDPSGWWTGRLRGKQGLFPNNYVTKI [F22Y]: the abundance fitness was -0.714 ± 0.41.

For the variant PQVPQCKALYAYDAQDTDELSWNANDIIDIIKEDPSGWWTGRLRGKQGLFPNNYVTKI [F22W], the abundance fitness is -0.996 ± 0.14.

Turning to PQVPQCKALYAYDAQDTDELSFIANDIIDIIKEDPSGWWTGRLRGKQGLFPNNYVTKI [N23I], the abundance fitness was -0.081 ± 0.03. Regarding PQVPQCKALYAYDAQDTDELSFAANDIIDIIKEDPSGWWTGRLRGKQGLFPNNYVTKI [N23A], the abundance fitness was -0.01 ± 0.031. Consider PQVPQCKALYAYDAQDTDELSFHANDIIDIIKEDPSGWWTGRLRGKQGLFPNNYVTKI [N23H], for which the abundance fitness is -0.048 ± 0.032. PQVPQCKALYAYDAQDTDELSFPANDIIDIIKEDPSGWWTGRLRGKQGLFPNNYVTKI [N23P]: the abundance fitness is -0.788 ± 0.041.

In the case of PQVPQCKALYAYDAQDTDELSFWANDIIDIIKEDPSGWWTGRLRGKQGLFPNNYVTKI [N23W], the abundance fitness was -0.38 ± 0.054. As to PQVPQCKALYAYDAQDTDELSFCANDIIDIIKEDPSGWWTGRLRGKQGLFPNNYVTKI [N23C], the abundance fitness is -0.062 ± 0.033. With PQVPQCKALYAYDAQDTDELSFQANDIIDIIKEDPSGWWTGRLRGKQGLFPNNYVTKI [N23Q], the abundance fitness is -0.002 ± 0.04. Consider PQVPQCKALYAYDAQDTDELSFEANDIIDIIKEDPSGWWTGRLRGKQGLFPNNYVTKI [N23E], for which the abundance fitness is 0.005 ± 0.041. In the case of PQVPQCKALYAYDAQDTDELSFYANDIIDIIKEDPSGWWTGRLRGKQGLFPNNYVTKI [N23Y] it was -0.155 ± 0.033; in that of PQVPQCKALYAYDAQDTDELSFTANDIIDIIKEDPSGWWTGRLRGKQGLFPNNYVTKI [N23T], -0.01 ± 0.03; in that of PQVPQCKALYAYDAQDTDELSFSANDIIDIIKEDPSGWWTGRLRGKQGLFPNNYVTKI [N23S], 0.004 ± 0.027. In the case of PQVPQCKALYAYDAQDTDELSFDANDIIDIIKEDPSGWWTGRLRGKQGLFPNNYVTKI [N23D] it was -0.047 ± 0.036; in that of PQVPQCKALYAYDAQDTDELSFMANDIIDIIKEDPSGWWTGRLRGKQGLFPNNYVTKI [N23M], -0.026 ± 0.047. Turning to PQVPQCKALYAYDAQDTDELSFFANDIIDIIKEDPSGWWTGRLRGKQGLFPNNYVTKI [N23F], the abundance fitness was -0.076 ± 0.03. For PQVPQCKALYAYDAQDTDELSFGANDIIDIIKEDPSGWWTGRLRGKQGLFPNNYVTKI [N23G], the abundance fitness is -0.048 ± 0.027. Turning to PQVPQCKALYAYDAQDTDELSFLANDIIDIIKEDPSGWWTGRLRGKQGLFPNNYVTKI [N23L], the abundance fitness was -0.065 ± 0.028. In the case of PQVPQCKALYAYDAQDTDELSFKANDIIDIIKEDPSGWWTGRLRGKQGLFPNNYVTKI [N23K] it was -0.008 ± 0.045.

The values are drawn from the Human Domainome abundance scans (Beltran et al. 2025).
